Columns and labels:
Assay in all cases: flow cytometry on transiently transfected L1.2 cells
[1] = molecular target: T1, chimeric receptor 1. HHHH (human, UniProt P21730 1-350)
T1 construct: Transiently expressed on mouse L1.2 cells
T1 chain: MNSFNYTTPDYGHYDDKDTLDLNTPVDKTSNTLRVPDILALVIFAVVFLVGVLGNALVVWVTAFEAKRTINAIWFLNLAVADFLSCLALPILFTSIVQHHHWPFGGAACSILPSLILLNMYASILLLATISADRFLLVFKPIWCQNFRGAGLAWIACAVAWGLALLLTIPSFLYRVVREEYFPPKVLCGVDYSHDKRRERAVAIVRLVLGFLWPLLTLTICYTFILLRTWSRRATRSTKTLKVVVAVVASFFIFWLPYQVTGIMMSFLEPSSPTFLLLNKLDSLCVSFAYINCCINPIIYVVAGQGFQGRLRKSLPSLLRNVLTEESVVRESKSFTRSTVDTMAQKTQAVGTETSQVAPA
Experimental: (§1) A series of chimeric receptors comprising segments of mouse and human C5aR were constructed to identify the region of the C5a receptor that the antibodies bound. […] Each recombinant vector (5 μg diluted in DMEM) encoding a different chimeric receptor was transfected into 5×10⁵ mouse L1.2 cells using Lipofectamine 2000 (Invitrogen). Cells were grown in DMEM or RPMI (Invitrogen) plus 10% foetal bovine serum (Hyclone). After 24 hours or 48 hours, cells were harvested by centrifugation at 1,500 rpm for 5 min and resuspended in FACS buffer (phosphate buffered saline plus 2% bovine serum albumin). For staining with hAb-Q, 0.5×10⁵ transfected cells were incubated with 5 or 10 μg/ml antibody in a volume of 50 μl per well at 4° C. for 20 minutes. Cells were pelleted as above and rinsed 3 times with 150 μl FACS buffer before addition of 50 μl FITC-conjugated anti-human IgG diluted 1:200 or 1:300 (Sigma, F1641). This mix was incubated for 20 min at 4° C. before cells were pelleted, washed with FACS buffer 3 times and finally resuspended in 150-200 μl FACS buffer. Samples were analysed on a FACS Calibur (BD Biosciences).
(§2) To confirm that the humanised antibody hAb-Q, which was derived from mouse mAb 7F3 by CDR grafting, and therefore should contain the same antigen-binding site, had the same staining pattern as 7F3, transiently transfected cells expressing the different chimeric human/mouse C5aR were stained with hAb-Q and analysed by flow cytometry. The pattern of staining by hAb-Q was identical to that observed with 7F3. There was no staining by the secondary antibody (anti-hIgG-FITC) alone.

[2] = molecular target: T2, chimeric receptor 2. mHHH (mouse; human, UniProt P30993 1-39)
T2 construct: range 1-39; Transiently expressed on mouse L1.2 cells
T2 sequence: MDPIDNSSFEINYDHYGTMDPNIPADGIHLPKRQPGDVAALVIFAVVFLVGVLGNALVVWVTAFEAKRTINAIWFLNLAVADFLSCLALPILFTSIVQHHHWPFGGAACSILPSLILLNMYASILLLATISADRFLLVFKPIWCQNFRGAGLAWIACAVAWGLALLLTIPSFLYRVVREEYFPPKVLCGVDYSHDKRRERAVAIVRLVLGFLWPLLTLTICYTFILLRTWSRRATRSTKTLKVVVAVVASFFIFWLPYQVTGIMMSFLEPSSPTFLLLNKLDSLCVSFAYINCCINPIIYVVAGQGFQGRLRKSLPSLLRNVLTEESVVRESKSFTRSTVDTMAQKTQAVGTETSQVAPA
Experimental: as §1, §2

[3] = molecular target: T3, chimeric receptor 3. mmHH (mouse; human, UniProt P30993 1-111)
T3 construct: range 1-111; Transiently expressed on mouse L1.2 cells
T3 sequence: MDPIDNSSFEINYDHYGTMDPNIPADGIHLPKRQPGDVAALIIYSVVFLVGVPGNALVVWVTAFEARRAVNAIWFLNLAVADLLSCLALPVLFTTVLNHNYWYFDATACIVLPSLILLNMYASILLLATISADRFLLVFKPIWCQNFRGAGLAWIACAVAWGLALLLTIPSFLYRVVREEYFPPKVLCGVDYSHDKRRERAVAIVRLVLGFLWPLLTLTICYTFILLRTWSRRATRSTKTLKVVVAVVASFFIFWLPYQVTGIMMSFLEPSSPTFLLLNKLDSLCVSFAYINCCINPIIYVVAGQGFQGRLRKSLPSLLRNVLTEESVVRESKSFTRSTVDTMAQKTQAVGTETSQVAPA
Experimental: as §1, §2

[4] = molecular target: T4, chimeric receptor 6. HmHH (human; mouse, UniProt P30993 93-111)
T4 construct: range 93-111; Transiently expressed on mouse L1.2 cells
T4 sequence: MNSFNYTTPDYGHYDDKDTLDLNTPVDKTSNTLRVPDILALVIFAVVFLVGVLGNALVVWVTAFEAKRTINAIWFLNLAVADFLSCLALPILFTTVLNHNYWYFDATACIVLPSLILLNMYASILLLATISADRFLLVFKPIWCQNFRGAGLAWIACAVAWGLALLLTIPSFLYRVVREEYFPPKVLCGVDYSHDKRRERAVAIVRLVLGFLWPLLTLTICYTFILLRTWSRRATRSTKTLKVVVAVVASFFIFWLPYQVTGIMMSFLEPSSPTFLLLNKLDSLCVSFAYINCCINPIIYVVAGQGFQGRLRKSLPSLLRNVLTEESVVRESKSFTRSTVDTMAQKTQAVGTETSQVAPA
Experimental: as §1, §2

[5] = molecular target: T5, chimeric receptor 11. mmHm (mouse; human, UniProt P30993 1-111; P30993 264-351, limits assumed)
T5 construct: Transiently expressed on mouse L1.2 cells
T5 sequence: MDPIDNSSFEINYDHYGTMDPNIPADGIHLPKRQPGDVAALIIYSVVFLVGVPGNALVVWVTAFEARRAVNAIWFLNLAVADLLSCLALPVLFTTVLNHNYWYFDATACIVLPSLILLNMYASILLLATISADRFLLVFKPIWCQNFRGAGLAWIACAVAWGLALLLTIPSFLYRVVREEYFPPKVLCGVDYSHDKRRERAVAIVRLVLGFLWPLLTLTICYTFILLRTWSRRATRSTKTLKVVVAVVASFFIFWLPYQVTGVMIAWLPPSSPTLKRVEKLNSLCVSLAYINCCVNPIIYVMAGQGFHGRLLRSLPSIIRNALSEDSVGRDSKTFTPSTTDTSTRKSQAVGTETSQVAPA
Experimental: as §1, §2

Measured: binding result

B1: humanized anti-C5aR antibody hAb-Q (antibody, human IgG4 S228P, kappa)
light: DVVMTQSPLSLPVTLGEPASISCRSSQSLVHSNGNTYLHWYLQKPGQSPQLLIYKVSNRFSGVPDRFSGSGSGTDFTLKISRVEAEDVGVYFCSQSTLVPLTFGQGTKLEIKRTVAAPSVFIFPPSDEQLKSGTASVVCLLNNFYPREAKVQWKVDNALQSGNSQESVTEQDSKDSTYSLSSTLTLSKADYEKHKVYACEVTHQGLSSPVTKSFNRGEC
heavy: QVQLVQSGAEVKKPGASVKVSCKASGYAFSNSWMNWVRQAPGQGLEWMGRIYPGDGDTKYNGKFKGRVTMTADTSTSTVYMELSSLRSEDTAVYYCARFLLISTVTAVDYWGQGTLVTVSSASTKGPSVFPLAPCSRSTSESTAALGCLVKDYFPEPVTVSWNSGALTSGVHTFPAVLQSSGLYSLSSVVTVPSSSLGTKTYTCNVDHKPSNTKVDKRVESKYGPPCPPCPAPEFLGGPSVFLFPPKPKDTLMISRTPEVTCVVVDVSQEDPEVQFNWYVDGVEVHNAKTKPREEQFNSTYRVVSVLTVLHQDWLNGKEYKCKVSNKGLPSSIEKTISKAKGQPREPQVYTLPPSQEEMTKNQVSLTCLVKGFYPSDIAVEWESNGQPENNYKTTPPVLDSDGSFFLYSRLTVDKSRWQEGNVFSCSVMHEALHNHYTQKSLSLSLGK
notes: IgG4 with the Ser228Pro mutation; also called antibody Q; anti-C5aR ab
binds: all assays above

Source: patent US20110190477A1 (G2 INFLAMMATION, published 2011)
